According to article PMC3114436 (Molecular cell, 2008):
Values belong to the molecule of their own block, whether it stands above or below them. No end group written: not given here.

Columns and labels:
Caulobacter ClpS = Caulobacter ClpS (Caulobacter vibrioides, UniProt Q9A5I0); experiment: ClpS binding assay by fluorescence anisotropy; parameters: species or system Caulobacter crescentus; settings: Fig. 3B
[1] = biological target: T1, C. crescentus ClpS residues 35-119 (Caulobacter crescentus, UniProt Q9A5I0 35-119); experiment: fluorescence polarisation
T1 sequence (looked up): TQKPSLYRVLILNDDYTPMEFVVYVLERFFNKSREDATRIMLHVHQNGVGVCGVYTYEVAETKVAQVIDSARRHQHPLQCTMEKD

[2] = biological target: peptides with Tyr, Trp, Phe, or Leu at the N-terminus; experiment: fluorescence polarisation
[3] = biological target: T1, C. crescentus ClpS residues 35-119; experiment: crystal structure

Molecule: Xxx-Leu-Phe-Val-Gln-Tyr-His6-Cys [Tyr peptide]
affinity for Caulobacter ClpS (in words) (Caulobacter ClpS): sub-micromolar

binding result [1]: binds
Molecule: WLFVQYHHHHHHC(fluorescein maleimide) [fluorescein-labelled N-end rule peptide Trp-Leu-Phe-Val-Gln-Tyr-His6-Cys]

binding result [1]: binds
Molecule: FLFVQYHHHHHHC(fluorescein maleimide) [fluorescein-labelled N-end rule peptide Phe-Leu-Phe-Val-Gln-Tyr-His6-Cys]

binding result [1]: binds
Molecule: LLFVQYHHHHHHC(fluorescein maleimide) [fluorescein-labelled N-end rule peptide Leu-Leu-Phe-Val-Gln-Tyr-His6-Cys]

Kd [2]: 150 to 500 nM
B1: C. crescentus ClpS residues 35-119 (domain or fragment)
chain: TQKPSLYRVLILNDDYTPMEFVVYVLERFFNKSREDATRIMLHVHQNGVGVCGVYTYEVAETKVAQVIDSARRHQHPLQCTMEKD

binding result [3]: binds
Molecule: YLFVQRDSKE [N-end rule decapeptide Tyr-Leu-Phe-Val-Gln-Arg-Asp-Ser-Lys-Glu]

Kd [1]: ~400 nM
Molecule: YLFVQYHHHHHHC(fluorescein maleimide) [fluorescein-labelled N-end rule peptide Tyr-Leu-Phe-Val-Gln-Tyr-His6-Cys]

KM of ClpAP degradation of Tyr-GFP with the ClpS variant (900 nM), fold increase (Tyr-GFP): 2 fold
B2: E. coli ClpS D36A (natural protein)
chain: MGKTNDWLDFDQLAEEKVRDALKPPSMYKVILVNDAYTPMEFVIDVLQKFFSYDVERATQLMLAVHYQGKAICGVFTAEVAETKVAMVNKYARENEHPLLCTLEKA

KM of ClpAP degradation of Tyr-GFP with the ClpS variant (900 nM), fold increase (Tyr-GFP): 5 fold
B3: E. coli ClpS H66A (natural protein)
chain: MGKTNDWLDFDQLAEEKVRDALKPPSMYKVILVNDDYTPMEFVIDVLQKFFSYDVERATQLMLAVAYQGKAICGVFTAEVAETKVAMVNKYARENEHPLLCTLEKA
